Drawing on US20220054419A1, this text covers Neutralization IC50, lentivirus pseudotype neutralization assay for three substances.

The test addresses hemagglutinin (HA) of A/California/4/09 (H1N1) on pseudotyped lentivirus (Influenza virus A/California/04/2009 (H1N1)) (UniProt P26140). Nature of the test: cell-based or functional assay.
In turn, monoclonal antibody 441D6 came in with a Neutralization IC50, lentivirus pseudotype neutralization assay of 0.16 µg/mL. To “monoclonal antibody CH65 (anti-receptor binding site of HA)” belongs 6.25 µg/mL; to “monoclonal antibody FI6v3 (anti-HA stem region)”, 0.13 µg/mL.
